In patent US20220096594A1 (University of Texas, published 2022):
Bridge positions count the residues as written; N and C are the ends. Square brackets hold non-standard residues; d marks the D form. Primed or numbered codes have the meaning given here. Ends that are not written are not given here. * marks the point of attachment. DSG″ = disuccinimidyl glutarate, a bis-NHS cross-linker that leaves a glutaryl bridge between two amines; DSG(3) = disuccinimidyl glutarate, bis-NHS cross-linker leaving a glutaryl bridge between two amines; puromycin = COc1ccc(C[C@H](N*)C(=O)N[C@H]2[C@@H](O)[C@H](n3cnc4c(N(C)C)ncnc43)O[C@@H]2CO)cc1; DSG = disuccinimidyl glutarate; NMeA = CN[C@@H](C)C(=O)O; mRNA = not defined here

B1: Clone 4B radiolabeled mRNA-peptide fusion (peptide)
peptide: MFPHRVTA[NMeA]K
modifications: bridge N-10; not fully specified (C-terminus, bridges); also: radiolabeled
notes: Tested as an individual in vitro translated peptide fusion from the SUPR mRNA display selection; also called Peptide 4B
B2: SUPR 4B (synthesized cyclic peptide) (peptide)
peptide: MFPHRVTA[NMeA]K
modifications: bridge N-10 via DSG″
notes: It is kept apart from the mRNA-peptide fusion m1; also called Clone 4B
B3: SUPR 4B1W (peptide)
peptide: MWPHRVTA[NMeA]K
modifications: bridge N-10 via DSG
notes: Phenylalanine-to-tryptophan variant of SUPR 4B at position 2

Key:
[1] = target: T1, His6-LC3A, biotinylated and immobilized on streptavidin agarose (human, UniProt Q9H492 1-121, chemically biotinylated (sites not given)); assay: radiolabeled peptide fusion incubated with immobilized LC3A
T1 construct: the species is not restated for this construct; The tag is placed at the N-terminus only because of the name His6-LC3A; also called immobilized LC3A; immobilized LC3; not shown: His6 tag

[2] = target: LC3 (as used in surface plasmon resonance) (human, UniProt Q9H492 1-120); assay: surface plasmon resonance

| Binder | % of radiolabeled peptide-fusions bound to immobilized LC3 [1] | Kd [2] | fold improvement of the apparent dissociation constant relative to SUPR4B [2] |
| --- | --- | --- | --- |
| B1 | 86% | – | – |
| B2 | – | 291 µM | – |
| B3 | – | 30 µM | ~10 fold |
| MFSHRVTL[NMeA]K (bridge N-10; not fully specified (C-terminus, bridges); also: radiolabeled) [Clone 25C radiolabeled mRNA-peptide fusion] | 13% | – | – |
| MLSDIPVNDK-{puromycin-mRNA} (bridge N-10 via DSG(3); reading uncertain; also: radiolabeled) [Clone 4E radiolabeled mRNA-peptide fusion] | 7% | – | – |
| MYARSLRD[NMeA]K (bridge N-10; not fully specified (C-terminus, bridges); also: radiolabeled) [Clone 25A radiolabeled mRNA-peptide fusion] | 6% | – | – |
| MNARSLRD[NMeA]K (bridge N-10; not fully specified (C-terminus, bridges); also: radiolabeled) [Clone 25F radiolabeled mRNA-peptide fusion] | 5% | – | – |
